Experimental findings from article doi:10.1101/2021.01.06.425657, “The SCF^Met30 ubiquitin ligase senses cellular redox state to regulate the transcription of sulfur metabolism gene” (bioRxiv, 2021) are described below.

First the molecules themselves.
B1: Met30-Flag (natural protein, S. cerevisiae, UniProt P39014 1-640, looked up)
chain: MRRERQRMMSFEDKDKDDLDNSNSNNSSEMTDTAMMPPLKRLLITGSSDDLAQGSSGKKKMTMATRSPSSSPDLATNDSGTRVQPLPEYNFTKFCYRHNPDIQFSPTHTACYKQDLKRTQEINANIAKLPLQEQSDIHHIISKYSNSNDKIRKLILDGILSTSCFPQLSYISSLVTHMIKIDFISILPQELSLKILSYLDCQSLCNATRVCRKWQKLADDDRVWYHMCEQHIDRKCPNCGWGLPLLHMKRARIQQNSTGSSSNADIQTQTTRPWKVIYRERFKVESNWRKGHCRIQEFKGHMDGVLTLQFNYRLLFTGSYDSTIGIWDLFTGKLIRRLSGHSDGVKTLYFDDRKLITGSLDKTIRVWNYITGECISTYRGHSDSVLSVDSYQKVIVSGSADKTVKVWHVESRTCYTLRGHTEWVNCVKLHPKSFSCFSCSDDTTIRMWDIRTNSCLKVFRGHVGQVQKIIPLTIKDVENLATDNTSDGSSPQDDPTMTDGADESDTPSNEQETVLDENIPYPTHLLSCGLDNTIKLWDVKTGKCIRTQFGHVEGVWDIAADNFRIISGSHDGSIKVWDLQSGKCMHTFNGRRLQRETQHTQTQSLGDKVAPIACVCIGDSECFSGDEFGCVKMYKFDLND
notes: Met30, F-box protein of the SCF^Met30 E3 ubiquitin ligase, Saccharomyces cerevisiae (CEN.PK background); endogenous locus tagged at the C-terminus; 23 cysteines; Isolated from yeast as a Met30-Flag complex, so other SCF components may be on the beads; Cysteines are reduced or oxidised depending on the IP condition (+DTT, -DTT, +diamide); also called SCF^Met30-Flag; Flag-tagged Met30; source: S. …
B2: Met30 C614/616/622/630S (Flag-tagged) (natural protein, S. cerevisiae, UniProt P39014 1-640, looked up)
chain: MRRERQRMMSFEDKDKDDLDNSNSNNSSEMTDTAMMPPLKRLLITGSSDDLAQGSSGKKKMTMATRSPSSSPDLATNDSGTRVQPLPEYNFTKFCYRHNPDIQFSPTHTACYKQDLKRTQEINANIAKLPLQEQSDIHHIISKYSNSNDKIRKLILDGILSTSCFPQLSYISSLVTHMIKIDFISILPQELSLKILSYLDCQSLCNATRVCRKWQKLADDDRVWYHMCEQHIDRKCPNCGWGLPLLHMKRARIQQNSTGSSSNADIQTQTTRPWKVIYRERFKVESNWRKGHCRIQEFKGHMDGVLTLQFNYRLLFTGSYDSTIGIWDLFTGKLIRRLSGHSDGVKTLYFDDRKLITGSLDKTIRVWNYITGECISTYRGHSDSVLSVDSYQKVIVSGSADKTVKVWHVESRTCYTLRGHTEWVNCVKLHPKSFSCFSCSDDTTIRMWDIRTNSCLKVFRGHVGQVQKIIPLTIKDVENLATDNTSDGSSPQDDPTMTDGADESDTPSNEQETVLDENIPYPTHLLSCGLDNTIKLWDVKTGKCIRTQFGHVEGVWDIAADNFRIISGSHDGSIKVWDLQSGKCMHTFNGRRLQRETQHTQTQSLGDKVAPIASVSIGDSESFSGDEFGSVKMYKFDLND
notes: Met30, F-box protein, Saccharomyces cerevisiae (CEN.PK background), with four cysteine to serine mutations in the WD-40 repeat region; whole gene locus with tag transformed into yeast; source: S. cerevisiae CEN.PK mutant strain grown in rich media, immunopurified on anti-FLAG M2 magnetic beads; not shown: Flag, C-terminal, kept
B3: Met30 C414S (Flag-tagged) (natural protein, S. cerevisiae, UniProt P39014 1-640, looked up)
chain: MRRERQRMMSFEDKDKDDLDNSNSNNSSEMTDTAMMPPLKRLLITGSSDDLAQGSSGKKKMTMATRSPSSSPDLATNDSGTRVQPLPEYNFTKFCYRHNPDIQFSPTHTACYKQDLKRTQEINANIAKLPLQEQSDIHHIISKYSNSNDKIRKLILDGILSTSCFPQLSYISSLVTHMIKIDFISILPQELSLKILSYLDCQSLCNATRVCRKWQKLADDDRVWYHMCEQHIDRKCPNCGWGLPLLHMKRARIQQNSTGSSSNADIQTQTTRPWKVIYRERFKVESNWRKGHCRIQEFKGHMDGVLTLQFNYRLLFTGSYDSTIGIWDLFTGKLIRRLSGHSDGVKTLYFDDRKLITGSLDKTIRVWNYITGECISTYRGHSDSVLSVDSYQKVIVSGSADKTVKVWHVESRTSYTLRGHTEWVNCVKLHPKSFSCFSCSDDTTIRMWDIRTNSCLKVFRGHVGQVQKIIPLTIKDVENLATDNTSDGSSPQDDPTMTDGADESDTPSNEQETVLDENIPYPTHLLSCGLDNTIKLWDVKTGKCIRTQFGHVEGVWDIAADNFRIISGSHDGSIKVWDLQSGKCMHTFNGRRLQRETQHTQTQSLGDKVAPIACVCIGDSECFSGDEFGCVKMYKFDLND
notes: Met30, F-box protein, Saccharomyces cerevisiae (CEN.PK background), with the point mutation C414S; whole gene locus with tag transformed into yeast; source: S. cerevisiae CEN.PK mutant strain grown in rich media, immunopurified on anti-FLAG M2 magnetic beads; not shown: Flag, C-terminal, kept

This experiment deals with T1, His-SUMO-Met4-Strep-tagII-HA (S. cerevisiae, UniProt P32389 1-672).
T1 construct: Met4, transcription factor of the MET regulon, Saccharomyces cerevisiae; MET4 ORF cloned into the pET His6 Sumo vector; fractions with pure, full-length Met4 were pooled; No cleavage of His-SUMO is described; also called recombinant Met4; bacterially purified Met4; source: E. coli BL21, purified (Ni-NTA, Strep-Tactin Sepharose); not shown: HA, C-terminal, kept
T1 sequence (looked up): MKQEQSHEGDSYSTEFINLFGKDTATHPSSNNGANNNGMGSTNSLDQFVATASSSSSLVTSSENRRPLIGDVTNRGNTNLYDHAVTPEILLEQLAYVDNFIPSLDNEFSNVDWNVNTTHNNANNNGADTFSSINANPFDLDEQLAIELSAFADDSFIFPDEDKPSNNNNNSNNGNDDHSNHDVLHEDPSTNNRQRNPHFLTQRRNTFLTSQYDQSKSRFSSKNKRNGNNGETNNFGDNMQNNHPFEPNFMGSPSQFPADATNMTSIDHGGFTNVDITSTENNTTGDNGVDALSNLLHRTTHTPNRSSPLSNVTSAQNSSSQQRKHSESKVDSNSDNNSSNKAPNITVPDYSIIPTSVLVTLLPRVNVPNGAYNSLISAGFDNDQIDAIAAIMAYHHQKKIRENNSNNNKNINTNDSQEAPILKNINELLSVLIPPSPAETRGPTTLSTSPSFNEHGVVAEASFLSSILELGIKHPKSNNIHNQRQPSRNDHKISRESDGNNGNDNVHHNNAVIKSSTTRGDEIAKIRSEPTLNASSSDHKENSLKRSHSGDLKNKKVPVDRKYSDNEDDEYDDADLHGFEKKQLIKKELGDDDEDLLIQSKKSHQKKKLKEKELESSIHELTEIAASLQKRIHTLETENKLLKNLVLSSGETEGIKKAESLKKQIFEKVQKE
Nature of the experiment: pull-down; Met30-Flag complex isolated on anti-FLAG M2 protein G dynabeads from lysate of rich or -sulfur cells with 1 mM DTT, 1 mM diamide or nothing added; beads washed, then incubated with 1 ug purified recombinant Met4 in 1 mL IP buffer (50 mM Tris pH 7.5, 150 mM NaCl, 1% NP-40) with or without 1 mM DTT, 2 h, 4°C; Western blots for Met4 and Met30; mutants from cells grown in rich media. The following applies: both partners purified.
Consider B1, for which the binding result is given as “binds”.

For the molecule B2, the binding result was “binds”.

With B3, the binding result was “binds”.
